Reference: US11653679B2, “High-purity steviol glycosides” (PureCircle Sdn Bhd, priority 2014, dated 2023)
Read-outs that look alike come from different tables or passages of the source.

Legend:
Type in all cases: biochemical
[1] = Activity for Stevioside to Rebaudioside E conversion with UGTSL, UGTSL2, UGTLB (Examples 28, 32); conditions: 600 μL lysate, based on initial concentration of Stevioside; for Rebaudioside E formation: 0.5 mM Stevioside; for Stevioside conv. (reaction time): 0.5 mM substrate
Procedure: Activity tests were performed at 3 mL scale with 600 μL of lysate for the transformation of Stevioside using 0.5 mM of substrate, 2.5 mM of UDP-Glucose and 3 mM MgCl2 in 50 mM Sodium Phosphate buffer at pH 7.2. Samples were taken and analyzed by HPLC. HPLC Analysis. The HPLC assay was performed as described in EXAMPLE 20.
Activity tests were performed at 3 mL scale with 600 μL of lysate for the transformation of Stevioside using 0.5 mM of substrate, 2.5 mM of UDP-Glucose and 3 mM MgCl2 in 50 mM Sodium Phosphate buffer at pH 7.2. Samples were taken and analyzed by HPLC. The corresponding chromatograms are depicted in FIG. 63a.

[2] = Activity for Rubusoside to Rebaudioside E conversion with UGTSL, UGTSL2, UGTLB (Examples 29, 32); conditions: 600 μL lysate, based on initial concentration of Rubusoside; for Rebaudioside E formation: 0.5 mM Rubusoside; for Rubusoside conv. (reaction time): 0.5 mM substrate
Procedure: Activity tests were performed at 3 mL scale with 600 μL of lysate for the transformation of Rubusoside using 0.5 mM of substrate, 2.5 mM of UDP-Glucose and 3 mM MgCl2 in 50 mM Sodium Phosphate buffer at pH 7.2. Samples were taken and analyzed by HPLC. The HPLC assay was performed as described in EXAMPLE 20.
Activity tests were performed at 3 mL scale with 600 μL of lysate for the transformation of Rubusoside using 0.5 mM of substrate, 2.5 mM of UDP-Glucose and 3 mM MgCl2 in 50 mM Sodium Phosphate buffer at pH 7.2. Samples were taken and analyzed by HPLC. The corresponding chromatograms are depicted in FIG. 63b.

[3] = Activity for Rebaudioside A to Rebaudioside D conversion with UGTSL2, UGTLB (Examples 30, 32); conditions: UGTLB, 22 h., 600 μL lysate, based on initial concentration of Rebaudioside A
Procedure: Activity tests were performed at 3 mL scale with 60 μL of lysate for the transformation of Rebaudioside A using 0.5 mM of substrate, 2.5 mM of UDP-Glucose and 3 mM MgCl2 in 50 mM Sodium Phosphate buffer at pH 7.2. Samples were taken and analyzed by HPLC. The HPLC assay was performed as described in EXAMPLE 20.
Activity tests were performed at 3 mL scale with 600 μL of lysate for the transformation of Rebaudioside A using 0.5 mM of substrate, 2.5 mM of UDP-Glucose and 3 mM MgCl2 in 50 mM Sodium Phosphate buffer at pH 7.2. Samples were taken and analyzed by HPLC. The corresponding chromatogram after 23 h. of reaction is depicted in FIG. 63c.

[4] = Rubusoside conversion products with UGTSL, UGTSL2, UGTLB by LCMS (Example 33); conditions: reaction time UGTSL2 2 hrs, UGTLB 5 hrs, UGTSL 45 hrs
Procedure: (§1) Conversion of stevioside with UGTSL and UGTSL2 was conducted in similar manner to Example 28, and the conversion of rubusoside with UGTSL and UGTSL2 was conducted similarly to Example 29. Conversions of rubusoside and stevioside with UGTLB was conducted similarly to Example 32.
(§2) The reaction mixtures were analyzed by LCMS to determine all reaction products.

[5] = Stevioside conversion products with UGTSL, UGTSL2, UGTLB by LCMS (Example 33); conditions: reaction time UGTSL2 2 hrs, UGTLB 2 hrs, UGTSL 22 hrs
Procedure: as §1, §2

[6] = Catalytic test Rebaudioside A to Rebaudioside D with in-vitro expressed UDP-glucosyltransferases (Examples 20, 21), HPLC
Procedure: The prepared expression medium mix was added to the plasmid solution and the solution was allowed to incubate at 30° C. for 3 hours while mixing the mixture every 45 minutes. 5 μL of the mixture was frozen whereas the remainder was used for the catalytic test for the conversion of Rebaudioside A to Rebaudioside D.
430 μL of a reaction mixture containing 0.5 mM Rebaudioside A, 3 mM MgCl2, 50 mM phosphate buffer (pH7.2) and 2.5 mM UDP-glucose was added to a 1.5 mL sterile microtube. 52 μl of the enzyme expression medium was added and the resulting mixture was allowed to react at 30° C. for 24 hours. 125 μL samples were taken after 2 hours, 16 hours and 24 hours and added to a 115 μL of 60% methanol and 10 μL of 2 N H2SO4. The quenched sample was centrifuged at 18,000 g for 2 minutes at RT. 200 μL was transferred to an HPLC vial and analyzed.
The HPLC assay was performed as follows:
430 μL of a reaction mixture containing 0.5 mM Rebaudioside A, 3 mM MgCl2, 50 mM phosphate buffer (pH7.2) and 2.5 mM UDP-glucose was added to a 1.5 mL sterile microtube. 52 μL of the enzyme expression medium was added and the resulting mixture was allowed to react at 30° C. for 24 hours. 125 μL samples were taken after 2 hours, 16 hours and 24 hours and added to a 115 μL of 60% methanol and 10 μL of 2 N H2SO4. The quenched sample was centrifuged at 18,000 g for 2 minutes at RT. 200 μL was transferred to HPLC vial and analyzed.
(§3) The HPLC assay was performed as described in EXAMPLE 20.

[7] = Activity of in-vivo produced enzymes for transformation of Rebaudioside A (Example 22)
Procedure: Activity tests were performed at 5 mL scale with 1,000 μL of thawed lysate for the transformation of Rebaudioside A using 0.5 mM of substrate, 2.5 mM of UDP-Glucose and 3 mM MgCl2 in 50 mM Sodium Phosphate buffer at pH 7.2. Samples were taken and analyzed by HPLC.
as §3

[8] = LC-MS of reaction mixtures of GI No. 460409128 with Rebaudioside A (Example 23)
Procedure: The reaction mixtures representing GI No. 460409128, particularly the sample “12400 S115N05A7 T24h 130627ABA” of EXAMPLE 20 (hereinafter S115N05A7), and the sample “12400 S129N04 T45h 130712ABA” of EXAMPLE 22 (hereinafter S129N04) were additionally assayed by LC-MS to identify the unknown glycosides. An Agilent 1200 series HPLC system, equipped with binary pump (G1312B), autosampler (G1367D), thermostatted column compartment (G1316B), DAD detector (G1315C), connected with Agilent 6110A MSD, and interfaced with “LC/MSD Chemstation” software, was used.
The compound observed on LCMS system at 3.5 min, corresponds to compound “Unknown@4.508” in sample “S115N05A7” (EXAMPLE 20), and compound “Unknown@RT4.526” in sample “S129N04” (EXAMPLE 22).
The ratio of these compounds and the LCMS chromatograms are provided below.

[9] = 0.5 mM Rebaudioside A, 30° C., HPLC

B1: UGTLB: UDP-glucosyltransferase, Lycium barbarum, SEQ ID NO:10 (protein, listed as Escherichia coli)
chain: MGTEVTVHKNTLRVLMFPWLAYGHISPFLNVAKKLVDRGFLIYLCSTAINLKSTIKKIPEKYSDSIQLIELHLPELPELPPHYHTTNGLPPHLNHTLQKALKMSKPNFSKILQNLKPDLVIYDLLQQWAEGVANEQNIPAVKLLTSGAAVLSYFFNLVKKPGVEFPFPAIYLRKNELEKMSELLAQSAKDKEPDGVDPFADGNMQVMLMSTSRIIEAKYIDYFSGLSNWKVVPVGPPVQDPIADDADEMELIDWLGKKDENSTVFVSFGSEYFLSKEDREEIAFGLELSNVNFIWVARFPKGEEQNLEDALPKGFLERIGDRGRVLDKFAPQPRILNHPSTGGFISHCGWNSVMESVDFGVPIIAMPIHLDQPMNARLIVELGVAVEIVRDDYGKIHREEIAEILKDVIAGKSGENLKAKMRDISKNLKSIRDEEMDTAAEELIQLCKNSPKLK
[1]; UGTLB, 22 h.
  Rebaudioside E formation: 3%
  Stevioside conv. (reaction time): 89% (22 h.)
[2]; UGTLB, 5 h.
  Rebaudioside E formation: 4%
  Rubusoside conv. (reaction time): 65% (5 h.)
[3]; 0.5 mM Rebaudioside A
  Rebaudioside D formation: 10%
[3]; 0.5 mM substrate
  Rebaudioside A conv. (reaction time): 72% (22 h.)
[4]
  LC-MS, peak area ratio (%): REb E: 9.21%
  LC-MS, peak area ratio (%): Reb D: 1.29%
  LC-MS, peak area ratio (%): Rub: 13.49%
  LC-MS, peak area ratio (%): Unknown peak #1 (MW804) RT 30.70 min: 4.07%
  LC-MS, peak area ratio (%): Unknown peak #2 (MW804) RT 49.50 min: 66.67%
  LC-MS, peak area ratio (%): Unknown peak #3 (MW804) RT 50.40 min: 5.27%
[5]
  LC-MS, peak area ratio (%): Reb E: 3.12%
  LC-MS, peak area ratio (%): Stev: 43.11%
  LC-MS, peak area ratio (%): Unknown peak #2 (MW966) RT = 26.50 min: 53.78%

B2: gi460409128_XP_004249992.1: cyanidin-3-O-glucoside 2-O-glucuronosyltransferase-like [Solanum lycopersicum], SEQ ID NO:5; S129N04 is its Example 22 reaction sample (protein, listed as Solanum lycopersicum)
chain: MSPKLHKELFFHSLYKKTRSNHTMATLKVLMFPFLAYGHISPYLNVAKKLADRGFLIYFCSTPINLKSTIEKIPEKYADSIHLIELHLPELPQLPPHYHTTNGLPPNLNQVLQKALKMSKPNFSKILQNLKPDLVIYDILQRWAKHVANEQNIPAVKLLTSGAAVFSYFFNVLKKPGVEFPFPGIYLRKIEQVRLSEMMSKSDKEKELEDDDDDDDLLVDGNMQIMLMSTSRTIEAKYIDFCTALTNWKVVPVGPPVQDLITNDVDDMELIDWLGTKDENSTVFVSFGSEYFLSKEDMEEVAFALELSNVNFIWVARFPKGEERNLEDALPKGFLERIGERGRVLDKFAPQPRILNHPSTGGFISHCGWNSAMESIDFGVPIIAMPMHLDQPMNARLIVELGVAVEIVRDDDGKIHRGEIAETLKGVITGKTGEKLRAKVRDISKNLKTIRDEEMDAAAEELIQLCRNGN
[6]; [9]
  Steviol glycoside conversion in reaction mixture, Reb A: 46.7 % area
  Steviol glycoside conversion in reaction mixture, Reb UNK (later identified as reb D2): 23.3 % area
[6]; in-vitro expressed enzyme
  Conversion RebA to RebD: Active
[7]; 0.5 mM, in-vivo produced enzyme lysate
  Conversion after 45 hrs.: 62.1%
[7]; after 45 hrs.
  Reb D selectivity: 43.6%
[8]
  Steviol glycoside conversion in reaction mixture, Reb A: 49.00 % area
  Steviol glycoside conversion in reaction mixture, Reb D: 23.73 % area
  Steviol glycoside conversion in reaction mixture, Reb UNK (reb D2): 21.22 % area
  Steviol glycoside conversion in reaction mixture, Unknown@RT3.5 (reb M2): 6.05 % area
[8]; listed as S115N05A7
  Steviol glycoside conversion in reaction mixture, Reb A: 53.24 % area
  Steviol glycoside conversion in reaction mixture, Reb D: 20.35 % area
  Steviol glycoside conversion in reaction mixture, Reb UNK (reb D2): 19.93 % area
  Steviol glycoside conversion in reaction mixture, Unknown@RT3.5 (reb M2): 6.47 % area
[1]; reaction time UGTSL 22 h., UGTSL2 2 h.
  Rebaudioside E formation: 46%
[1]; reaction time UGTSL 22 h., UGTSL2 2 h., 2.5 mM UDP-Glucose, pH 7.2
  Stevioside conv. (reaction time): 74% (22 h.)
[2]; reaction time UGTSL 45 h., UGTSL2 2 h.
  Rebaudioside E formation: 27%
[2]; reaction time UGTSL 45 h., UGTSL2 2 h., 2.5 mM UDP-Glucose, pH 7.2
  Rubusoside conv. (reaction time): 70% (45 h.)
[4]
  LC-MS, peak area ratio (%): REb E: 35.88%
  LC-MS, peak area ratio (%): Reb D: 3.45%
  LC-MS, peak area ratio (%): Rub: 7.82%
  LC-MS, peak area ratio (%): Stev: 2.37%
  LC-MS, peak area ratio (%): Unknown peak #1 (MW804) RT 30.70 min: 20.38%
  LC-MS, peak area ratio (%): Unknown peak #2 (MW804) RT 49.50 min: 27.75%
  LC-MS, peak area ratio (%): Unknown peak #3 (MW804) RT 50.40 min: 2.35%
[5]
  LC-MS, peak area ratio (%): Reb D: 0.54%
  LC-MS, peak area ratio (%): Reb E: 49.68%
  LC-MS, peak area ratio (%): Stev: 25.24%
  LC-MS, peak area ratio (%): Unknown peak #1 (MW966) RT = 22.60 min: 3.97%
  LC-MS, peak area ratio (%): Unknown peak #2 (MW966) RT = 26.50 min: 20.56%
